“Also recorded” adds a separate entry of the source.
Tests used:
Uke-1 cells = assay: ADCC activity in vitro (Calcein release, NK3.3 effector cells); assay type: cell-based; settings: unconjugated IgG1, effector to target ratio 20 to 1
Protocol: The ability of the unconjugated anti-cKIT antibodies (NEG085, 20376) to mediate antibody dependent cellular cytotoxicity was determined versus Uke-1 cells (target cells; generously provided by Professor Walter Fiedler, University Hospital Eppendorf, Hamburg, Germany) in co-incubation with NK3.3 cells (killer cells or effector cells; kindly provided by Jacky Kornbluth from Saint Louis University). […] In order to calculate the antibody specific lysis of the target cells, a parallel incubation of target cells only without antibody or effector cells served as a baseline and negative control, whereas the positive control or maximal lysis or hundred percent specific lysis was determined by lysis of target cells only with a 1% Triton-X 100 solution. […] Following a co-incubation of target and effector cells, the microtiterplate was centrifuged and an aliquot of the supernatant fluid was transferred to another microtiterplate (96 well, flat-bottomed, black with clear bottom; (Corning Costar, catalog #3904, Tewksbury, MA) and the concentration of free Calcein in solution was determined with a fluorescence counter (Victor 3 ® multilabel counter, Perkin Elmer, Waltham, MA).

primary human mast cells = assay: mast cell degranulation (β-hexosaminidase release); assay type: cell-based; settings: 0.05-100 nM, 90 min
Protocol: Primary human mast cells were cultured from peripheral human blood according to the methods described by Saito et al., (supra). Mast cells, which had been in liquid culture for a minimum of one week, were pre-treated with 5% Ag-specific IgE JW8 (in-house batch ACE 27283), 95% non-specific monoclonal human IgE (Abbiotec, Cat #12030635, San Diego, CA) and 10 ng/mL rhIL-4 (R&D Systems Cat #204-IL, Minneapolis, MN) for 5 days at 37° C. The cells were then incubated with increasing concentrations (0.05-100 nM) of an isotype control IgG, the anti-human cKIT Abs, 20376 and NEG085, the anti-IgE Ab, LE27, or the NIP(5)BSA antigen, in the presence of a goat anti-human IgG (H+L) Fc-specific Ab (Jackson ImmunoResearch, Cat #109-005-008-JIR, West Grove, PA) for 90 min at 37° C. Cells were then centrifuged and the supernatants were transferred into 96-well black-walled plates prior to the addition of the β-hexosaminidase substrate. Following 90 min incubation at 37° C., the reaction was stopped by the addition of tris-base (Sigma, Cat #T1503-500G, pH 12, St. Louis, MO) and the fluorescence intensity was recorded on the Envision® plate reader.

B1: NEG085: anti-cKIT antibody of Table 3, VH SEQ ID NO 82, VL SEQ ID NO 91 (antibody, listed as Homo sapiens, V domains shown)
VH: EVQLVESGGGLVQPGGSLRLSCAASGFAFSGYYMAWVRQAPGKGLEWVANINYPGSSTYYLDSVKGRFTISRDNAKNSLYLQMNSLRAEDTAVYYCARGDYYGTTYWYFDVWGQGTTVTVSS
VL: DIQMTQSPSSLSASVGDRVTITCRASQSISSYLNWYQQKPGKAPKLLIYYTSRLQSGVPSRFSGSGSGTDFTLTISSLQPEDFATYYCQQGRRLWSFGGGTKVEIK
For B1, the “ADCC killing of target cells” value (Uke-1 cells) was “do not induce ADCC; also recorded: not able to induce ADCC” and the “degranulation of primary human mast cells” value (primary human mast cells) was “do not mediate primary human mast cell degranulation; also recorded: do not induce mast cell degranulation”.
